From patent US20260234247A1 (published 2026)
Where a chain is given by its changes, count along the chain named.

B1: LK-RB2-25 (antibody, human IgG4 S228P, kappa, V domains shown)
VH: QVQLKESGPGLVAPSQSLSITCTVSGFSLTSYGVHWVRQPPGKGLEWLGVIWAGGSTKYNSALMSRLSINKDNSKSQVFLKMNSLQTDDTAMYYCARDQMVRSAMDYWGQGTSVTVSS
VL: DIQMIQSPSSMFASLGDRVSLSCRASQGIRGNLDWYQQKPGGTIKLLIYSTSNLNSAVPSRFSGSGSGSDYSLTISNLESEDFADYYCLQRNASPYTFGGGTKLEIKR
B2: LK-RB2-31 (antibody, human IgG4 S228P, kappa, V domains shown)
VH: QVQLQQPGAELVKPGASMKLSCKASGYTFTTYYMYWVKQRPGLGLEWIGGINPSNGGTTFNEKFKNKATLTVDKSSSTAYMQLRSLTSEDSAVYYCTRWRFFDVWGAGTTVTVSS
VL: SIVMTQTPEFLLVSAGDRVTITCKASQSVNNDVAWFQQKPGQSPKLLIYYASNRYTGVPDRFTGSGYGTDFTFTISTVQAEDLAIYFCQQDYSSPPTFGGATKLEIKR
B3: LK-RB2-26 (antibody, human IgG4 S228P, kappa, V domains shown)
VH: B1 VH with K58D, S61A, L63F, M64I, S68N, N70S, N73I, K75E, L80F, K81R
VL: B1 VL
B4: LK-RB2-27 (antibody, human IgG4 S228P, kappa, V domains shown)
VH: DVKLVESGGGLVKPGGSLKLSCAASGFTFSSYSMSWVRQTPEKRLEWVATISTGGSYTYYPDSVKGRFTISRDNAKNTLYLQMSSLKSEDTAMFYCTRGSMDYWGQGTSVTVSS
VL: DILMTQSPSSMSVSLGDTVSITCHASQDISSNIGWLQQKPGNSFKGLIYHGTNLEDGVPSRFSGSGSGADYSLTISSLESEDFADYYCVQYAQFPYTFGGGTKLEIKR
B5: LK-RB2-28 (antibody, human IgG4 S228P, kappa, V domains shown)
VH: B4 VH with V64M
VL: B4 VL with T22A
B6: LK-RB2-29 (antibody, human IgG4 S228P, kappa, V domains shown)
VH: QVQLQQSGAELARPGASVKLSCKASGYTFTSYWMQWVKQRPGQGLEWIGAIYPGDGDTRYTQKFKGKATLTADKSSSTAYMQLSSLASEDSAVYYCARGYYGSSYADYFDYWGQGTTLTVSS
VL: DIQMTQSPASLSASVGETVTITCRASGNIHNYLAWYQQKQGKSPQLLVYNAKTLADGVPSRFSGSGSGTQYSLKINSLQPEDFGSYYCQHFWSTPPTFGGGTKLEIKR
B7: LK-RB2-30 (antibody, human IgG4 S228P, kappa, V domains shown)
VH: EVQLVESGGGLVQPGGSLKLSCAASGFTFNTDGMSWVRQTPDKRLELVAIINSNGGSTYYPDSVKGRFTISRDNAKNTLYLQMSSLKSEDTAMYYCAREGSYGSWFAYWGQGTLVTVSA
VL: DIQMTQSPASLSVSVGETVTITCRASENINNNLAWYHQKQGKSPQLLVYAATNLADGVPSRFSGSGSGTQYSLKINSLQSEDFGSYYCQHFWGTPFTFGGGTKLEIKR
B8: LK-RB2-34 (antibody, human IgG4 S228P, kappa, V domains shown)
VH: B4 VH with L4V, G55S, P61S
VL: B4 VL with T52I
B9: LK-RB2-42 (antibody, human IgG4 S228P, kappa, V domains shown)
VH: EFQLQQSGPELVKPGASVKISCKASGYSFTDYNMNWVKQSNGKSLDWIGIINPKYGTTAYNQKLRDKATLTVDQSSSTAYMQLNSLTSEDSAVYYCASLNWDEGFAYWGQGTLVTVSP
VL: DVLMTQTPLSLPVSLGDQASISCRSSQSIVHSNGNTYLEWYLQKPGQPPKLLIYKVSNRFSGVPERFSGSGSGTDFTLKINRVEAEDLGVYYCFQGSLVPPTFGGGTKLEIKR
B10: LK-RB2-44 (antibody, human IgG4 S228P, kappa, V domains shown)
VH: EVQLVESGGDLVKPGGSLKLSCAASGFTFSSYGMSWVRQTPDKRLEWVATISGGGTYTYYPDSVKGRFTISRDNAKNTLYLQMSSLKSEDTAMYYCASGAMDYWGQGTSVTVSS
VL: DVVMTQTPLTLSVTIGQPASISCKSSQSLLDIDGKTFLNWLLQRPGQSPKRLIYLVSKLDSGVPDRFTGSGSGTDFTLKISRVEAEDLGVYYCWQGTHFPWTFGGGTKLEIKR
B11: LK-RB2-47 (antibody, human IgG4 S228P, kappa, V domains shown)
VH: QVQLKQSGPGLVQPSQSLSITCTVSGFSLISYGVHWVRQSPGKGLEWLGVIWSGGSTDYNAAFISRLSISKDNSKSQVFFKMNSLQADDTAIYYCARSFHYHGSTFDYWGQGTTLTVSS
VL: DIQMTQTTSSLSASLGDRVIISCRASQDINNYLNWYQQKPDGTVKLLIYFTSRLHSGVPSSFSGSGSGTDYSLTINNLEQEDIATYFCQQVNTLPYTFGGGTKLEIKR
B12: LK-RB2-15 (antibody, human IgG4 S228P, kappa, V domains shown)
VH: QIQLVQSGPELKKPGETVKISCKASGYTFTTYGMSWVKQAPGKGLKWMGWINVYSGVPTYADDFKGRFAFSLEISASTAYLQINNLKDEDTATYFCARRKDYSGHCFDYWGQGTTLTVSS
VL: DIVLTQSPASLAVSLGQRATFSCRASESVDTYGISFMHWYQQKPGQPPKLLIYRASNLESGIPARFSGSGSRTDFTLTINPVETDDVATYYCQQSKKEPYTFGGGTKLEIKR
B13: LK-RB2-24 (antibody, human IgG4 S228P, kappa, V domains shown)
VH: QIQLVQSGPEVKKPGETVKISCKASGYTFTTYGMSWVKQAPGKGLKWMGWLNIYSGVPAYADDFKGRFAFSLESSASTAYLQINNLKNEDTATYFCARRENYDGYGMDYWGQGTSVTVSS
VL: DIVMTQSPATLSVTPGDRVSLSCRASQSISDYLHWYQQKSHESPRLLIKYASQSISGIPSRFSGSGSGSDFTLSINSVEPEDVGVYYCQNGHSFPYTFGGGTKLEIKR
B14: 15G8 (antibody, human IgG4 S228P, kappa, V domains shown)
VH: DVQLQGSGPGLVKPSETLSLTCSVTGYSITSGYYWNWIRQFPGKKLEWMGYISYDGSNNYNPSLKNRITISRDTSKNQFSLKLNSVTAADTATYYCAHGYSYYYAMDAWGQGTSVTVSS
VL: DIQMTQSPSSLSASVGDRVTITCRTSQDISNYLNWYQQKPGKAVKLLISYTSRLHSGVPSRFSGSGSGTDYTLTISSLQPEDFATYYCQQGNTLPTFGQGTKLEIKR
B15: 3C1 (antibody, human IgG4, kappa, V domains shown)
VH: EVQLVESGGGLVQPGGSLRLSCAASGFTFSDYDMHWVRQATGKGLEWVATIDTAGDTYYPDSVRGRFTISRENAKNSLSLQMNSLRAGDTAVYFCARDVPGTGFDHWGQGTLVTVSS
VL: SSELTQDPAVSVALGQTVRITCQGDSLRSYYESWYQQKPGQAPVLVIYGKNNRPSGIPDRFSGSISGNTASLTITGTQAEDEADYYCNSRDNSGDHWVFGGGTRLTVLG

Target: T1, human LILRB1 (human, UniProt Q8NHL6 24-458, limits assumed)
T1 construct: also called hLILRB1
Experiment: Octet off-rate ranking;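 also: antibody dissociation rate constants against cynomolgus LILRB2 plus human LILRB1, LILRB2, LILRA1 and LILRA2, measured on an Octet instrument to rank binding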
Text: (§1) Binding affinity of anti-LILRB1 and anti-LILRB2 antibodies against human LILRB1, LILRB2, LILRA1, LILRA2 and cynomolgus LILRB2 was ranked by measuring dissociation rate constant (Kdis) using the Octet system.

T1 sequence (Q8NHL6 24-458 limits assumed): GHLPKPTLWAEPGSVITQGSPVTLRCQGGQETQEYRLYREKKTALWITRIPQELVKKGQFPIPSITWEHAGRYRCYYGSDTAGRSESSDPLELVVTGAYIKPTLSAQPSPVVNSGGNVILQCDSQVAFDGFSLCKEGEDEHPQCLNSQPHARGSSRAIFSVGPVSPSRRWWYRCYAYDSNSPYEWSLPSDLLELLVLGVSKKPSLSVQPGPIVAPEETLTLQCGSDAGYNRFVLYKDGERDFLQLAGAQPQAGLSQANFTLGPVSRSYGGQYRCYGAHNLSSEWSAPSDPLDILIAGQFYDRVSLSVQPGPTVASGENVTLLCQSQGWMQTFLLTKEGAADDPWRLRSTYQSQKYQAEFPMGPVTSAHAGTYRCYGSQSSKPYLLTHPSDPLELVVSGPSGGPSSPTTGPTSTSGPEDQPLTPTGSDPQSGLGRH

Compared with B1, B2 is 2.7-fold higher in koff: 0.000609 s⁻¹ for the first, 0.00167 s⁻¹ for the second.

Target: cynomolgus LILRB2 (cynomolgus)
Experiment: Octet off-rate ranking;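 also: antibody dissociation rate constants against cynomolgus LILRB2 plus human LILRB1, LILRB2, LILRA1 and LILRA2, measured on an Octet instrument to rank binding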
Text: as §1

cynomolgus LILRB2 (cynomolgus), sequence (chain, as listed by the source): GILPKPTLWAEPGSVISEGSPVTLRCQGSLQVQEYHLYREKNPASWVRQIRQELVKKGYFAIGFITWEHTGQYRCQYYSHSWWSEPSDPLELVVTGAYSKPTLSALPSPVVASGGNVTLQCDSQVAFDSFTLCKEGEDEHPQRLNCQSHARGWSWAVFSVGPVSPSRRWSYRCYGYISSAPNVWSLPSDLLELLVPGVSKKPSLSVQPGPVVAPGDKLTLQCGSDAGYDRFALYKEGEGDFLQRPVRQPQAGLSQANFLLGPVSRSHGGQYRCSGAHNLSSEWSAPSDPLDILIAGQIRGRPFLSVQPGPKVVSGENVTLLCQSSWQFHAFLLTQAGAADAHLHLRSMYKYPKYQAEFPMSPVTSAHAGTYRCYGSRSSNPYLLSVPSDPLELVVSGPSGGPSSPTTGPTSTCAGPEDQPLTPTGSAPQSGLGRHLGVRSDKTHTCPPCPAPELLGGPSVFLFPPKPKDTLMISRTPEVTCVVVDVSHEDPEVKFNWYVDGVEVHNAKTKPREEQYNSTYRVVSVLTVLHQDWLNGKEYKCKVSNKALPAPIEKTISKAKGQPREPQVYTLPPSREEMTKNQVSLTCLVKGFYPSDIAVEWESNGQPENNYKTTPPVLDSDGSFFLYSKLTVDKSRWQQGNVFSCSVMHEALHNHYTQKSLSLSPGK

Compared with B1, B3 is 4.3-fold higher in koff: 0.000424 s⁻¹ for the first, 0.00184 s⁻¹ for the second.

B4 and B5 are within 1.5-fold of each other in koff: 0.00109 s⁻¹ for the first, 0.00114 s⁻¹ for the second.

Going from B6 to B7, the koff falls from 0.000215 s⁻¹ to 2.01e-05 s⁻¹ (11-fold).

Compared with B2, B8 is 2.3-fold higher in koff: 0.000291 s⁻¹ for the first, 0.000673 s⁻¹ for the second.

First: B9
Second: B10
The koff of the first is 2.4-fold lower: 0.000147 s⁻¹ for the first, 0.000346 s⁻¹ for the second.

B11 showed a koff of 3.03e-05 s⁻¹.

Target: T2, human LILRB1 expressed on CHOK1 cells (CHOK1-hLILRB1) (human, UniProt Q8NHL6 24-650)
T2 construct: whole, on cells; also called CHOK1-LILRB1
Experiment: FACS binding to CHOK1-hLILRB1 cells

T2 sequence (Q8NHL6 24-650): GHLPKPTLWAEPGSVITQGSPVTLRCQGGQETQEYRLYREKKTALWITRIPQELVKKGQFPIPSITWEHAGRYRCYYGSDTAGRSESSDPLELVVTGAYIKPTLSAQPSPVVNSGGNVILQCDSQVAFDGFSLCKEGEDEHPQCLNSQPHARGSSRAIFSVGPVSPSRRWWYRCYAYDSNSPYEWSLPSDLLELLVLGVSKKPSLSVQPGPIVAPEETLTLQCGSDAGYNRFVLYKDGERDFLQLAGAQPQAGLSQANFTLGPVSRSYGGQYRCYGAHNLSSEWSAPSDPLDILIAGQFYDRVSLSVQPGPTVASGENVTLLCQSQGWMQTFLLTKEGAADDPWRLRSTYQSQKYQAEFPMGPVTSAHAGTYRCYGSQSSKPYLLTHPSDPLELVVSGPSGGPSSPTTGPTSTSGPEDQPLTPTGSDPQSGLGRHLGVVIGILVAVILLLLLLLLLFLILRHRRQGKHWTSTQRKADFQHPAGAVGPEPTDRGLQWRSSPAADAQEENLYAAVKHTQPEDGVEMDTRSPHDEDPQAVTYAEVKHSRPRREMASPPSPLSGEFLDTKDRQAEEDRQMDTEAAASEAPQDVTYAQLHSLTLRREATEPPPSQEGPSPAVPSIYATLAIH

Compared with B12, B13 is 37-fold lower in EC50: 31.4 nM for the first, 0.848 nM for the second. The second is the more potent here.

B14 and B15 are within 1.5-fold of each other in EC50: 0.57 nM for the first, 0.62 nM for the second.

Target: T3, human LILRB2 expressed on CHOK1 cells (CHOK1-hLILRB2) (human, UniProt Q8N423 22-597)
T3 construct: whole, on cells; also called CHOK1-LILRB2
Experiment: FACS binding to CHOK1-hLILRB2 cells

T3 sequence (Q8N423 22-597): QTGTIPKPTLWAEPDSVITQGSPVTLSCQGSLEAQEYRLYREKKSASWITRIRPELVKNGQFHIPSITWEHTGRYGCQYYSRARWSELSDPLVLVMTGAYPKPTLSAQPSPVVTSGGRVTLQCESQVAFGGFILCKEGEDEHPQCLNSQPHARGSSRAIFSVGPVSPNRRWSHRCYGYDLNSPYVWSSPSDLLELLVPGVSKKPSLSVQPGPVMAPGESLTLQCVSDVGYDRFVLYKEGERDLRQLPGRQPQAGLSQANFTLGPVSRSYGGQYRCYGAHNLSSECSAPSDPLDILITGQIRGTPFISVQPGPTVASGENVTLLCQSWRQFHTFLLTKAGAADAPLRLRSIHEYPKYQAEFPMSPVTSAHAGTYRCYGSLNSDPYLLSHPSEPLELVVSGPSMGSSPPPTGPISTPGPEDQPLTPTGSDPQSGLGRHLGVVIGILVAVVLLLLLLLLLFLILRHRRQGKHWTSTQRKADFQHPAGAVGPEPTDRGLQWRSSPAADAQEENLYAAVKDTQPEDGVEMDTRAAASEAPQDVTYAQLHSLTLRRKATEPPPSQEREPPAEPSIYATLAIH

B12 and B13 are within 1.5-fold of each other in EC50: 0.16 nM for the first, 0.18 nM for the second.

B14: no binding.
B15: no binding.

Target: T2, human LILRB1 expressed on CHOK1 cells …
Experiment: cell based RBA, flow cytometry: blocking of HLA-G binding to CHOK1-hLILRB1 cells

First: B12
Second: B13
The EC50 of the first is 2.5-fold higher: 4.18 nM for the first, 1.7 nM for the second.

B14 and B15 are within 1.5-fold of each other in EC50: 0.69 nM for the first, 0.94 nM for the second.

Going from B12 to B13, the “Top Inhibition” value rises from 70.8% to 93.4%.

First: B14
Second: B15
The “Top Inhibition” value of the first is higher: 82.5% for the first, 79.6% for the second.

Target: T3, human LILRB2 expressed on CHOK1 cells …
Experiment: cell based RBA, flow cytometry: blocking of HLA-G binding to CHOK1-hLILRB2 cells

First: B12
Second: B13
The EC50 of the first is 1.7-fold higher: 0.162 nM for the first, 0.0956 nM for the second. The second is the more potent here.

Compared with B12, B13 is lower in “Top Inhibition” value: 77.5% for the first, 74.1% for the second.
